Measurements taken from publication PMC9280689, “Resistance to Powdery Mildew in Qingke Involves the Accumulation of Aromatic Phenolamides Through Jasmonate-Mediated Activation of Defense-Related Genes” (Frontiers in Plant Science, 2022).

Legend:
Test in all cases: purified protein
[1] = substrate: CC(C)(COP(=O)(O)OP(=O)(O)OC[C@H]1O[C@@H](n2cnc3c(N)ncnc32)[C@H](O)[C@@H]1OP(=O)(O)O)[C@@H](O)C(=O)NCCC(=O)NCCSC(=O)/C=C/c1ccc(O)c(O)c1; settings: acyl donor, amine acceptor 100 μM (which amine not told), 10 mM MgCl2, Tris-HCl pH 7.4, 30 °C
[2] = substrate: CC(C)(COP(=O)(O)OP(=O)(O)OC[C@H]1O[C@@H](n2cnc3c(N)ncnc32)[C@H](O)[C@@H]1OP(=O)(O)O)[C@@H](O)C(=O)NCCC(=O)NCCSC(=O)/C=C/c1ccc(O)cc1; settings: acyl donor, amine acceptor 100 μM (which amine not told), 10 mM MgCl2, Tris-HCl pH 7.4, 30 °C
[3] = substrate: COc1cc(/C=C/C(=O)SCCNC(=O)CCNC(=O)[C@H](O)C(C)(C)COP(=O)(O)OP(=O)(O)OC[C@H]2O[C@@H](n3cnc4c(N)ncnc43)[C@H](O)[C@@H]2OP(=O)(O)O)ccc1O; settings: acyl donor, amine acceptor 100 μM (which amine not told), 10 mM MgCl2, Tris-HCl pH 7.4, 30 °C
[4] = substrate: NCCCCN; settings: acyl acceptor, feruloyl-CoA 50 μM as donor, 10 mM MgCl2, Tris-HCl pH 7.4, 30 °C

B1: HvACT (Hordeum vulgare) (protein)
chain: MKITVHSSKAVKPEYGACGLAPGCTADVVPLTVLDKANFDTYISVIYAFHAPAPPNAVLEAGLGRALVDYREWAGRLGVDASGGRAILLNDAGARFVEATADVALDSVMPLKPTSEVLSLHPSGDDGPEELMLIQVTRFACGSLVVGFTTQHIVSDGRSTGNFFVAWSQATRGAAIDPVPVHDRASFFHPREPLHVEYEHRGVEFKPCEKAHDVVCGADGDEDEVVVNKVHFSREFISKLKAHASAGAPRPCSTLQCVVAHLWRSMTMARGLDGGETTSVAIAVDGRARMSPQVPDGYTGNVILWARPTTTAGELVTRPVKHAVELISREVARINDGYFKSFIDFANSGAVEKERLVATADAADMVLSPNIEVDSWLRIPFYDMDFGGGRPFFFMPSYLPVEGLLILLPSFLGDGSVDAYVPLFSRDMNTFKNCCYSLD
- Km [1]: 483.5 ± 63.2 µM
- kcat [1]: 0.175 s⁻¹
- Km [2]: 104.9 ± 26.3 µM
- kcat [2]: 1.04 s⁻¹
- kcat/Km [2]: 10000 M⁻¹ s⁻¹
- Km [3]: 161.3 ± 36.5 µM
- kcat [3]: 0.736 s⁻¹
- kcat/Km [3]: 5000 M⁻¹ s⁻¹
- Km [4]: 7.11 ± 2.14 µM
- kcat [4]: 2.51 s⁻¹
- kcat/Km [4]: 353000 M⁻¹ s⁻¹
